In patent publication US20090036380A1, “Composition And Method For Brain Tumor Therapy” (Yeda Research and Development Co., Ltd., priority 2006, published 2009):

What was measured:
[1] = test system: Hek cells; experiment: Viability (XTT) and morphology of Hek cells co-transfected with Karet and receptors; type: cell-based, human; conditions: 24 hours after transfection; for cell morphology: microscope
Method: FIGS. 21a-q are photomicrographs of Hek cells 24 hours after transfection with karet, Trk receptors, EGFR and/or P75 constructs. […] FIG. 21a—cells transfected with TrkA and pcDNA3; FIG. 21b—TrkA and Karet; FIG. 21c—TrkA and Karet F217V; FIG. 21d—Karet and pcDNA4; FIG. 21e—Karet F217V and pcDNA4; FIG. 21f—TrIcA and pcDNA3; FIG. 21g—TrkB and pcDNA3; FIG. 21h—TrkC and pcDNA3; FIG. 21i—TrkA and Karet;
FIG. 21j—TrkB and Karet; FIG. 21k—TrkC and Karet; FIG. 21l—Karet and pcDNA3; FIG. 21m—TrkC (low concentration) and pcDNA3; FIG. 21n—EGFR-Flag and pcDNA3; FIG. 21o—p75 and pcDNA3; FIG. 21p—EGFR-Flag and Ha-Karet; FIG. 21q—p75 and Ha-Karet.
FIGS. 22a-b are histograms depicting the effect of co-transfection of Karet and TrkA on cell death in Hek (FIG. 22a) or NNR5 (FIG. 22b) cells. FIG. 22a—Hek cells were co-transfected with Karet or control vector and TrkA, TrkB and TrkC. Viability of the cells was measured 24 hours after transfection by XTT. *p<0.05; FIG. 22b—NNR5 cells were co-transfected with Karet or control vector and TrkA, TrkB and TrkC. Cells were analyzed by FACS 24 hours after transfection using the dead/live kit. ** p<0.001.
FIG. 23 is a histogram depicting the effect of co-transfection of EGFR and Karet on cell death in Hek cells. Hek cells were co-transfected with Karet or control vector and p75, EGFR and PTB. Viability of the cells was measured 24 hours after transfection by XTT. ** p<0.001.
Cell proliferation was evaluated using the Cell proliferation assay with XTT reagent (Cat. No. 20-300-1000), Biological Industries, Beth Haemek, Israel, according to manufacturer's instructions.
To test whether Karet is capable of inducing cell death in other cells such as human HEK or NNR5 cells, the cells were transfected with various receptors and Karet constructs and the effect on cell death was determined by microscopic observation of cell morphology and using cell viability assays, as follows.

[2] = molecular target: T1, necdin (Homo sapiens, UniProt Q99608); experiment: Co-immunoprecipitation of Karet with necdin; type: binding; conditions: necdin-PC12 cells, during 50 ng/ml NGF treatment
T1 construct: expressed in transfected cells
T1 sequence (Q99608 1-321): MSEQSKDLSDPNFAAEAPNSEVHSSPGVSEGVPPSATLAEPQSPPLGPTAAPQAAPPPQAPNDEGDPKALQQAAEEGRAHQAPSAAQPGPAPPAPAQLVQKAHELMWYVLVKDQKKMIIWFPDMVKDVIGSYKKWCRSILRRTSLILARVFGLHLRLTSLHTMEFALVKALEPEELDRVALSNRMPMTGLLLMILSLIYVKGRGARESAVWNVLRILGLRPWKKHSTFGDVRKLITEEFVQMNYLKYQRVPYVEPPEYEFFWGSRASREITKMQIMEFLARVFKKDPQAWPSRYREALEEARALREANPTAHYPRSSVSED
Method: Karet tagged with the HA epitope was immunoprecipitated with anti-HA antibody, the precipitated proteins were separated electrophoretically, and gel blots were incubated with anti-necdin. In control experiments the HA-Karet was substituted with vector.
FIGS. 4a-c are co-immunoprecipitation assay results depicting the influence of NGF treatment on TrkA-Karet interaction. FIG. 4a depicts that TrkA-Karet interaction occurred prior to NGF treatment and was enhanced after ligand stimulation for 10 minutes (10 m) or 2 hours (2 h). HA-Karet was electroporated into cell line PC12, and the cells were treated with 50 ng/ml NGF for the indicated time periods in order to activate p75 and TrkA. Karet tagged with the HA epitope was immunoprecipitated with anti-HA antibody, the precipitated proteins were separated electrophoretically, and gel blots were incubated with anti-TrkA antibody (RTA). FIG. 4b depicts that necdin seems to compete with TrkA for binding to Karet. myc-Karet was electroporated into necdin stable cell line, and the cells were treated with 50 ng/ml NGF for the indicated time periods. Karet tagged with the myc epitope was immunoprecipitated with anti-myc antibody, the precipitated proteins were separated electrophoretically, and gel blots were incubated with anti-TrkA antibody (RTA). […] A blot from the same experiment was stripped and re-incubated with anti-necdin antibody. […]

[3] = test system: COS cells; experiment: Viability of COS cells expressing Karet; type: cell-based
[4] = molecular target: T2, TrkB (Homo sapiens, UniProt Q16620); experiment: Co-immunoprecipitation of Ha Karet with TrkB in Hek cells; type: binding; conditions: co-transfected Hek cells
T2 construct: expressed in transfected cells; host or cells: Hek cells
Method: (§1) FIGS. 24a-d depict co IP of Ha Karet with TrkA, TrkB, TrkC, p75 from co-transfected Hek cells. Cells were co-transfected with Ha Karet or control vector and TrkA, TrkB, TrkC or p75. Cells were lysed with NP40, the HA-beads (beads conjugated to anti-HA antibody) were blocked with Hek lysate, and elution was done for 30 minutes at 37° C. Proteins from anti-HA-IP (FIGS. 24a and b) or from cell lysates without IP (FIGS. 24c and d) were subjected to Western blot analysis and the membranes were probed with anti pan trk (FIGS. 24a and c) or anti-p75 (FIGS. 24b and d) antibodies. Note the specific co-IP of Karet with TrkA (FIG. 24a, lane 1), Karet with TrkB (FIG. 24a, lane 3), Karet with TrkC (FIG. 24a, lane 5) and the lack of IP between karet and p75 (FIG. 24b, lane 7).

[5] = molecular target: T3, TrkC (Homo sapiens, UniProt Q16288); experiment: Co-immunoprecipitation of Ha Karet with TrkC in Hek cells; type: binding; conditions: co-transfected Hek cells
T3 construct: expressed in transfected cells; host or cells: Hek cells
Method: as §1

[6] = molecular target: T4, EGFR (Homo sapiens, UniProt P00533); experiment: Co-immunoprecipitation of HA-Karet with EGFR in HEK cells; type: binding; conditions: co-transfected HEK cells
T4 construct: expressed in transfected cells; host or cells: HEK cells
Method: FIG. 3g is a co-immunoprecipitation assay depicting co-immunoprecipitation of HA-Karet with EGFR in co-transfected HEK cells. Cells were co-transfected with Ha Karet or control vector and EGFR. Cells were lysed with NP40, the HA-beads (i.e., beads conjugated to HA antibody) were blocked with Hek lysate, and elution was done for 30 minutes at 37° C. The membranes were probed with anti FLAG antibody. Note the co-immunoprecipitation of Karet with EGFR in HEK cells.

[7] = molecular target: T5, TrkA; experiment: Tyr phosphorylation of TrkA in PC12 6.24 cells; type: cell-based, human; conditions: PC12-6.24 cells expressing Karet, anti-phospho-Tyr blot
T5 construct: expressed in transfected cells; host or cells: PC12 6.24 cells (rat PC12 stably overexpressing human TrkA; Hempstead et al., 1992)

[8] = Hek cells co-transfected with TrkA

T5 sequence (P04629 33-796): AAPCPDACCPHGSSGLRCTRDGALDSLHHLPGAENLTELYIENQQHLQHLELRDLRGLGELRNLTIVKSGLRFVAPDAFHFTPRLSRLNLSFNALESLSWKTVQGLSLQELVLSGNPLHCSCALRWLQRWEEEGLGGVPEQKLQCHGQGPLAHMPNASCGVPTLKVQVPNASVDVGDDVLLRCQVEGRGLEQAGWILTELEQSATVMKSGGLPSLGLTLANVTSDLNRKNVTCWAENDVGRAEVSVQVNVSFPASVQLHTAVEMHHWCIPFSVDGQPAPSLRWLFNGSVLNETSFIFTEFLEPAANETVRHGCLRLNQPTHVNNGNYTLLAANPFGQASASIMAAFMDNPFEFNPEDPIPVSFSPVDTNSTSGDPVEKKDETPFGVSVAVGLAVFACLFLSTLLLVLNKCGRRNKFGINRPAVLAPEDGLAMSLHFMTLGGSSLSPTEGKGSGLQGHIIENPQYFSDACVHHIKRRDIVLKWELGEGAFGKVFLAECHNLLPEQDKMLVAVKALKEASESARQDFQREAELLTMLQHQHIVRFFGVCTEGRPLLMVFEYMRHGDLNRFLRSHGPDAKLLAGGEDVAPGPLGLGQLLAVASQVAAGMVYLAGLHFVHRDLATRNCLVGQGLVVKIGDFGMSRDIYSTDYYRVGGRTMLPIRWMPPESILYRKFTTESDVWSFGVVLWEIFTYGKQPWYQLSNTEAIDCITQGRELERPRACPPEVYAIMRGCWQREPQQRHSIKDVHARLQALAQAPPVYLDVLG

| Substance | cell morphology [1, 8] | interaction with necdin [2] | cell viability [3] | co-immunoprecipitation with TrkB [4] | co-immunoprecipitation with TrkC [5] | co-immunoprecipitation with EGFR [6] | phosphorylation of TrkA [7] | decrease in living cells ([1]; HEK cells co-transfected with Karet and TrkA, XTT) | decrease in cell viability ([1]; Hek cells co-transfected with EGFR and Karet, XTT) | cell morphology ([1]; Hek cells co-transfected with EGFR) |
| --- | --- | --- | --- | --- | --- | --- | --- | --- | --- | --- |
| Karet F217V: full-length mouse Karet with phenyl alanine at position 217 point mutated to valine | transfection-induced cell death | – | – | – | – | – | – | – | – | – |
| Karet: full-length mouse Karet protein (SEQ ID NO:1), PTB domain protein, expressed from pcDNA3 with HA tag | morphology change which is consistent with cell death | robust and constant | no reduction in cell viability | co-immunoprecipitated | co-immunoprecipitated | co-immunoprecipitation | significantly enhanced the phosphorylation of the receptor | 50% | 40% | morphology change which is consistent with cell death |
